According to publication doi:10.1101/2024.11.25.625199:

Target: cross-linked CA(M66I) hexamer, CA(A14C/E45C/W184A/M185A) with M66I (HIV-1)
Assay: crystal structure

cross-linked CA(M66I) hexamer, CA(A14C/E45C/W184A/M185A) with M66I (natural protein)
stoichiometry N: 6
